Measurements reported in US20240033354A1 (University of California, published 2024).

B1: Repeat1-Fc (CSPG4 Repeat1, residues 410-551, fused to the N-terminus of the Fc fragment of a human IgG1) (Fc fusion)
chain: ELPEPCVPEPGLPPVFANFTQLLTISPLVVAEGGTAWLEWRHVQPTLDLMEAELRKSQVLFSVTRGARHGELELDIPGAQARKMFTLLDVVNRKARFIHDGSEDTSDQLVLEVSVTARVPMPSCLRRGQTYLLPIQVNPVND
B2: CSPG4^mini (CSPG4 residues 30-764) (receptor)
chain: ASFFGENHLEVPVATALTDIDLQLQFSTSQPEALLLLAAGPADHLLLQLYSGRLQVRLVLGQEELRLQTPAETLLSDSIPHTVVLTVVEGWATLSVDGFLNASSAVPGAPLEVPYGLFVGGTGTLGLPYLRGTSRPLRGCLHAATLNGRSLLRPLTPDVHEGCAEEFSASDDVALGFSGPHSLAAFPAWGTQDEGTLEFTLTTQSRQAPLAFQAGGRRGDFIYVDIFEGHLRAVVEKGQGTVLLHNSVPVADGQPHEVSVHINAHRLEISVDQYPTHTSNRGVLSYLEPRGSLLLGGLDAEASRHLQEHRLGLTPEATNASLLGCMEDLSVNGQRRGLREALLTRNMAAGCRLEEEEYEDDAYGHYEAFSTLAPEAWPAMELPEPCVPEPGLPPVFANFTQLLTISPLVVAEGGTAWLEWRHVQPTLDLMEAELRKSQVLFSVTRGARHGELELDIPGAQARKMFTLLDVVNRKARFIHDGSEDTSDQLVLEVSVTARVPMPSCLRRGQTYLLPIQVNPVNDPPHIIFPHGSLMVILEHTQKPLGPEVFQAYDPDSACEGLTFQVLGTSSGLPVERRDQPGEPATEFSCRELEAGSLVYVHRGGPAQDLTFRVSDGLQASPPATLKVVAIRPAIQIHRSTGLRLAQGSAMPILPANLSVETNAVGQDVSVLFRVTGALQFGELQKQGAGGVEGAEWWATQAFHQRDVEQGRVRYLSTDPQHHAYDTVENLALEVQ

Columns and labels:
[1] = molecular target: T1, TcdB1 holotoxin (recombinant full-length TcdB1, VPI10463 strain, expressed in Bacillus megaterium) (Clostridium difficile, VPI10463 strain, UniProt P18177 1-2366)
[2] = molecular target: TcdB2 (recombinant full-length, R20292 strain [sic], expressed in Bacillus megaterium) (Clostridium difficile, R20291 strain …, UniProt P18177 1-2366)
[3] = molecular target: T1, TcdB1 holotoxin (recombinant …); test: two-step pull-down, first step (FIG. 15C)

Binder	Kd [1]	koff [1]	kon [1]	Kd [2]	koff [2]	kon [2]	binding result [3]
B1	~0.0152 µM	~0.000108 s⁻¹	~7060 M⁻¹ s⁻¹	~0.0054 µM	~4.63e-05 s⁻¹	~8340 M⁻¹ s⁻¹	–
B2	–	–	–	–	–	–	binds
